Results on five proteins are retold here after US20170355730.

The target in one series is T1, Antp-PCP.
T1 chain: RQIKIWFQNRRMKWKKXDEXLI

Another series deals with T2, R9-PCP.
T2 chain: RRRRRRRRRXDEXLI

The target of a further series is T3, cFΦR4-PCP (not fully specified).
T3 chain: FXRRRRQXDEXLI

B1: SHP2 (protein)
chain: AEIESRVRELSKLAETTDKVKQGFWEEFETLQQQECKLLYSRKEGQRQENKNKNRYKNILPFDHTRVVLHDGDPNEPVSDYINANIIMPEFETKCNNSKPKKSYIATQGCLQNTVNDFWRMVFQENSRVIVMTTKEVERGKSKCVKYWPDEYALKEYGVMRVRNVKESAAHDYTLRELKLSKVGQGNTERTVWQYHFRTWPDHGVPSDPGGVLDFLEEVHHKQESIMDAGPVVVHCSAGIGRTGTFIVIDILIDIIREKGVDCDIDVPKTIQMVRSQRSGMVQTEAQYRFIYMAVQHYIETLQRR
A word on the kcat/KM: it is the turnover number divided by the Michaelis constant. For B1, the catalytic efficiency (kcat/KM) is 2210 M⁻¹ s⁻¹ with Antp-PCP, 248 M⁻¹ s⁻¹ with R9-PCP and 7400 M⁻¹ s⁻¹ in the series with cFΦR4-PCP.

B2: PTP1B (construct not stated) (protein)
chain: MEMEKEFEQIDKSGSWAAIYQDIRHEASDFPCRVAKLPKNKNRNRYRDVSPFDHSRIKLHQEDNDYINASLIKMEEAQRSYILTQGPLPNTCGHFWEMVWEQKSRGVVMLNRVMEKGSLKCAQYWPQKEEKEMIFEDTNLKLTLISEDIKSYYTVRQLELENLTTQETREILHFHYTTWPDFGVPESPASFLNFLFKVRESGSLSPEHGPVVVHCSAGIGRSGTFCLADTCLLLMDKRKDPSSVDIKKVLLEMRKFRMGLIQTADQLRFSYLAVIEGAKFIMGDSSVQDQWKELSHEDLEPPPEHIPPPPRPPKRILEPHN
Regarding B2, the kcat/KM with Antp-PCP worked out at 17400 M⁻¹ s⁻¹; with R9-PCP it was 14700 M⁻¹ s⁻¹; with cFΦR4-PCP, 37100 M⁻¹ s⁻¹.

B3: VHR (protein)
chain: MSGSFELSVQDLNDLLSDGSGCYSLPSQPCNEVTPRIYVGNASVAQDIPKLQKLGITHVLNAAEGRSFMHVNTNANFYKDSGITYLGIKANDTQEFNLSAYFERAADFIDQALAQKNGRVLVHCREGYSRSPTLVIAYLMMRQKMDVKSALSIVRQNREIGPNDGFLAQLCQLNDRLAKEGKLKP
On to B3, for which the kcat/KM with Antp-PCP is 2030 M⁻¹ s⁻¹; with R9-PCP, 6240 M⁻¹ s⁻¹; in the series with cFΦR4-PCP it was 2460 M⁻¹ s⁻¹.

B4: TCPTP (protein)
chain: MPTTIEREFEELDTQRRWQPLYLEIRNESHDYPHRVAKFPENRNRNRYRDVSPYDHSRVKLQNAENDYINASLVDIEEAQRSYILTQGPLPNTCCHFWLMVWQQKTKAVVMLNRIVEKESVKCAQYWPTDDQEMLFKETGFSVKLLSEDVKSYYTVHLLQLENINSGETRTISHFHYTTWPDFGVPESPASFLNFLFKVRESGSLNPDHGPAVIHCSAGIGRSGTFSLVDTCLVLMEKGDDINIKQVLLNMRKYRMGLIQTPDQLRFSYMAIIEGAKCIKGDSSIQKRWKELSKEDLSPAFDHSPNKIMTEKYN
Take B4: the kcat/KM with Antp-PCP was 970 M⁻¹ s⁻¹; in the series with R9-PCP, 457 M⁻¹ s⁻¹; in the series with cFΦR4-PCP, 2780 M⁻¹ s⁻¹.

B5: CD45 (protein)
chain: YKIYDLHKKRSCNLDEQQELVERDDEKQLMNVEPIHADILLETYKRKIADEGRLFLAEFQSIPRVFSKFPIKEARKPFNQNKNRYVDILPYDYNRVELSEINGDAGSNYINASYIDGFKEPRKYIAAQGPRDETVDDFWRMIWEQKATVIVMVTRCEEGNRNKCAEYWPSMEEGTRAFGDVVVKINQHKRCPDYIIQKLNIVNKKEKATGREVTHIQFTSWPDHGVPEDPHLLLKLRRRVNAFSNFFSGPIVVHCSAGVGRTGTYIGIDAMLEGLEAENKVDVYGYVVKLRRQRCLMVQVEAQYILIHQALVEYNQFGETEVNLSELHPYLHNMKKRDPPSEPSPLEAEFQRLPSYRSWRTQHIGNQEENKSKNRNSNVIPYDYNRVPLKHELEMSKESEHDSDESSDDDSDSEEPSKYINASFIMSYWKPEVMIAAQGPLKETIGDFWQMIFQRKVKVIVMLTELKHGDQEICAQYWGEGKQTYGDIEVDLKDTDKSSTYTLRVFELRHSKRKDSRTVYQYQYTNWSVEQLPAEPKELISMIQVVKQKLPQKNSSEGNKHHKSTPLLIHCRDGSQQTGIFCALLNLLESAETEEVVDIFQVVKALRKARPGMVSTFEQYQFLYDVIASTYPAQNGQVKKNNHQEDKIEFDNEVDKVKQDANCVNPLGAPEKLPEAKEQAEGSEPTSGTEGPEHSVNGPASPALNQGS
Take B5: the kcat/KM is 22300 M⁻¹ s⁻¹ with Antp-PCP, 2940 M⁻¹ s⁻¹ with R9-PCP and 35100 M⁻¹ s⁻¹ in the series with cFΦR4-PCP.
